Data on 10 sequences can be found in a protein production outcome set (Wang et al. 2014).

This series can be described thus: label from the status in PepcDB records.

Consider “MGLLVILNIVMRIPSIPHEKGYDSFFIHSLANSVANFGVAQWWINWMSVFGLYPYSYASAVPFTLSGMSQLTGIRMEIVILLFCVLLGLFSIFASYSLATVLYDNFLHRFLFAVIFSSSAGTLNLTTWEITTRAQILVFFPFLLYLLFQIIKFKTKFVMLFIVTALLLLATHHFVYMGLFYSGLIFIVALIYKLNRNQPFQIQKTQLRNINLNYMYISSVFFLIILIFLYGSKWGLITSGSRYAWIIDILMITGRNVGLTLLLSIGALIYYIFKKDKLLDEWAILICLIPTLIFSFNQTYGYLTTYLFVTLLGSAGLFNVIKNQKQNRKVVAATVVILIILNITFSTFFVHYRLGIGGGNSEWYMSEETYNTGEWIKENISWDKKAVSNSMQGNRLFASYGGQPVLYRDDISNYMNGFVTLNESKIEKKSPFSKSFYLDNPYVLKSGTTTSGLYSWISQYPITSENSQNFINGNNISYFYDDSLNYNRLFGSLPQSKNSIYNSGRMRIWEN”, for which the protein production result is reported as “failed”.

In the case of “MGLNKEAVKIGFAYVGIVVGAGFSTGQEVMQFFSPYGLWSYIGVILSGLILGFIGRQVAKIGTAFDAQNHESTLDYLFGNKFSKIVDYLLIFFLFGISVTMLAGAGSTFEESFGVPTWLGALIMVIVIYITLLMDFNKIVRALGVVTPFLIILVVIIAAYYLFNGSISFGEVNDAVPDASLVKGILYGINYGGLAFAVGFSTIVAIGGDASRRRVSGAGALFGGIVYTILLALINFALQSEFTKIEDASIPMLTLANDIHPWIGLVLSIIMLAVMYNTILGLMYSFAARFTEPYSKKYHIFIVVMVIVAFALSFVGFAGLINFLYPIMGVVGLVVVIGVLVKYYSRKRQNKKFIA”, the protein production result was “failed”.

For “MGLNNARGLSFGLDGALYVTEAGTGGNGACIPSVTGQGGSLCYGTSSTVLKIENGVTSPVLTGLPSIALADGTGAGGARDIQFDTTGKPYILMGYGANPTFRNNLGNIDLGKIIAPDFQTNSWTSIADLANYELVNNPDGGDINSNPLGFFIDGNNLIAVDAGANNLLSVQTNGTNLQTLSVFPQEILTNPVFPPSGTPSTEPGQVPTPTAPPPPQLPIQVVPSSVVRGPDGAYYVSQFTGFPFPEGGAKIYRVGTDGETTIYADGFTQLTDLEFDSAGNLYALQYANQSAWKGNFDGSLIKIAADGTRTTILSGNGLESPNALAIAPNGEIYITNRSDRPGLGQIIRVENSQAVPLEHHHHHH”, the protein production entry is recorded as “failed”.

On to “MGLPAHHIDAFLDRLRTAHYSEVSLRKKRRVLCAFSGWMKHRNIDLIDLDESVTARFMKRMIDASRDRVQRARPTLRQFLAYLRAEAIVCSPTLGSQSAIAHTYRRYLDYLRQDRGLAKNSLLVYGPFIRDFLDSHSAGDGSLLPDAFDAVTIRNHLLARSKGRSAEYTRLMAVALRSFCHFLFLRGDTARDLAGSVPSVRKWRQSTVPTFLTPEQQEALIASADRSTPTGLRDYAILLLLARLGLRAGEIIEIELDDIHWRSGELVVHGKGQMVEHVPLSSEVGAAIATYLRDGRGASASRRVFLRRLAPRVGLAGPAAIGKIVCQAFARVGFRPACRGAAHLFRHGLATTMIRHGASMAEIAEVLRHRSPDSTAIYAKVAFEDLRGVARSWPTAGGAILEHHHHHH”, for which the protein production result is “not failed”.

Regarding “MGLPNLSRFREKCCYCYRSIGDGISVCDCGFSFCEKHRGIHLGKSGCRIVFDIKEVGSDLGIEIKNAMLGEEEVEELRRRMEILIKPGDEDERVLSRDEEVRCVHGCPEGPSSIEMGNIGGLKCNLCDVKTRLWVCFSCGYVGCGRMQYGAEGNGHAKSHYEETQHNVFVLVPSLLKEDCEIFCYLCDSNIRSRYNSAENSVTIDFGGADGKTEERSVRKVMSCRGIAEPEFLEKKRAPESKGESVPSPYVGIINSGNTCYISSVIHMVGYAVSKEEFDLEQHFEICYMKNPLECFFCQLMRVLSKMKETKDNEGVNRISILDLIMLIWRDMPMFGKFAQQDAHEFLLFLLEKIREGERSYLIPPITSLFEFEVGRRVSCSGCMDDSTSYESMLMICTFLKGNIRKSVEMFFLPDEWSCECGGKKKVSRFITTLPKYLIIQVGRYSYNNYKVEKIKDKIEMRSIKLGSFMSKDEADRSLVRKLVDSGYPEEDAAKALGIFWNDESKARSLLENHAMMDMRTDSKYRVVGCINHSGDNIKAGHYTWWVYDNGKCFKIDDTTVLNSNVEVLEDGYIFLFK”, the protein production result is recorded as “failed”.

For “MGLRALSASVNAFECEKQHGDPKSMRINSVPGGRPPRDGRPSRAGALFGCSSAEALYFGSECRPGPSARRFGDNRAHSSLTYWCGMNTFDFGFDDSEDSPHEDPLEDLVAAYENDPSAYFDSGDLEEIASFYFEEGEMETALEVIDRLIELHPYTSDAWMRRGILLNNLGRPEEALEAYEQALDVNPTDTETLINLGITLDSLGRVDEALEAYDEALSINPLHGEALFNLGVTLERDEQLEAAVEAFQRCADVYPEHPEVWYELGYCYDRLGEDEKSVEAYDNHLDIDPYSKDAWYNRGIVLNRLGRFGEAVESYDMALAIHDEFASAYYNRGNAEANQGDLEAAVESYERVLELEGPDAATYYNLALAYEEQGDLRAARTYYEKTLDLKSNYPEAWYGLGCCFDTDERPEEALECFRYAVNLDANVPKFWTARADCAYKVGKLDEALESYQHAVRLDESNEHAWTGYAETLLEKEQPEEALEAYRQALELDPKSANTYFRQAKALLALGRADESIRALKTAFRLDPAKKEEFQKAYPTLYDNDRVRRLLDLDS”, the protein production result is recorded as “failed”.

As for “MGLRMSESAKPYFAMVCLQFGYAGMNLVTKTVLDRGMSHYVLVAYRNAFATAAIAPFALLSERKVRSKMTFPIFMRIFLLALLGPVIDQNLYYIGLKLTSPTFSSAVSNIVPAITIILATLFRMEKVEMRKVRCLVKVMGTLVTVVGSILMIFYKGPFINFFRSHLTAASSPPTADYLKAAVFLLLASLSWASFFVLQAATLKKYSAHLSMSTMVCFMGTLQSLALAFVMEHNPSALNIGFDMNLLASAYAGIMSSSIAYYVQGLMMQRKGPVFVTAFNPLIVVIVSIMSFFVLGQGIYLGGYVNNNRVIGVVVLMVGVYAVLWGKHVDDDGEETRHEDNVVAVKCCSGNNGLTIMPKIDEADEEDVETGKATSEKESSVPEVVVVVFCSENVHSVSRPN”, the protein production result is recorded as “failed”.

“MGLSAVAVFAISGALDAARQKMDILGFMLIGTATGLGGGTLRDLLLGNVPVFWIREPIWIIVCLVSTAITYFIAPKLASITRALIWMDAVGIALFAVVGTEIALEFGTSPLIAICMGVMTASFGGIARDVLSGSNLTLMNEELYITTTVAGSVMYLWLNTLSLPANYDLIGGFFIAFILRALAIRFHIKLPNHYRKD”: the protein production result was “failed”.

On to “MGLTDIFLNLLLFVYPAVFIIYQIILYEISARKQINQEALKYSNLPVLSIIVPIKNEEISVIQGLLDNLSNLIWDKKKLEIIIVSDDNEDYFTKIINTVKVPKDLTVYFYRREKKLGYKSGALQYGFEKATGDLILTIDVDSRLPPNALINAYEKMQSNTCDAIVFQWNGYSSNQYSTLAKGMVVSTLFASKALFEGKEKLKLKIYPVGSGTMFSREALRVVNGWDYRLVQDDLEIGTRLIYNGKNVCASGIPIYVEVPDNFYSFYVQQTRWAMGSAEVLRNRLKYIIKSKISFTQRMDLIIYLLQYTPVIVTFFISTLLSLMLPFRIGHDPLNSPALLFWLVSLGLYASLLLSLALKLGLNLKDSLMGIGRLTAFTVSISPFIVFNFFKGLLKSGNTYVITPKGTVKKTNKLLRIIAIIGVFGLLYLLSSILYIYEGYYVTGIWLLYYSSAYLYTMLLYYKEL”, for which the protein production entry was “failed”.

Turning to “MGLTSHKYKYVSIYFLALLFLGIAVIESLHISHTRDLQEGLRQQAKEDLSIVRFQLEAEILGDIYTVKGLTTLLTLDPDLNIYQWEPLSAAVIRNSDHLRSLGIAPNDVVAFSYPLPQTNALLGLDYRTVPQQWQSIKKAREIKQTFVSGPVDLVQGGRALVIREPIFYDPPKDTRYWGVLSVVMDWDSLLSATSIYSFGEHFQVAIRGLDSRGSEGDVFFGEPRVFEHAFAQENVYFPYGSWRIAVAEKQDLLQQLSWYTRNAVRLLGYSVLLVLMAGFGVIMRLYQVAEERALHDPLTHLPNRRYFIYTIEHYFENAKRSHSEGNFALLNIDIDRFKSINDSHGHSAGDKVLVACAERIKSSLRVSDLVARIGGDEFLVLIPRIHREQDVLKVSDNILKRISETPIVYDDKLIHVRVSIGYALYDQSFATPDEMFKLADERMYTAKRRQNPLYRF”, the protein production result is “failed”.
